Test results taken from patent US20250059282A1 (University of Texas, published 2025).

What was measured:
Cyno PD-L1-Fc [1] = target: T1, Cyno PD-L1-Fc (cynomolgus, UniProt G7PSE7 19-238); assay: ForteBio, IgG, avid
T1 construct: also called cynomolgus PD-L1

Cyno PD-L2-Fc [2] = target: T2, Cyno PD-L2-Fc (cynomolgus, UniProt A0A2K5U5Z4 20-220); assay: ForteBio, IgG, avid
T2 construct: also called cynomolgus PD-L2; not shown: Fc
T2 sequence: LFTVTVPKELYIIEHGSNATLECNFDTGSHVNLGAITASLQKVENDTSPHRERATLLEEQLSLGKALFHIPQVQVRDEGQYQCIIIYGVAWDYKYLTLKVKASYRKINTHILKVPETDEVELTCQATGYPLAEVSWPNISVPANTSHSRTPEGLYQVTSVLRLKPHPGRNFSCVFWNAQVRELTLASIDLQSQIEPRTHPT

Mouse PD-L1-Fc [3] = target: T3, Mouse PD-L1-Fc (mouse, UniProt Q9EP73 19-239, limits assumed); assay: ForteBio, IgG, avid
T3 construct: also called murine PD-L1; not shown: Fc
T3 sequence (Q9EP73 19-239 limits assumed): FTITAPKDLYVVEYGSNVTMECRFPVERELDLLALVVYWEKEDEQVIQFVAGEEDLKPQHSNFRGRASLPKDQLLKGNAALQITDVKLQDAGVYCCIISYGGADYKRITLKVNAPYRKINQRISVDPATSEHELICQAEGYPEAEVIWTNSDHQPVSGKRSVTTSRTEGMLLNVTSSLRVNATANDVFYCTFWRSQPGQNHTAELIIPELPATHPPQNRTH

Mouse PD-L2-Fc [4] = target: T4, Mouse PD-L2-Fc (mouse, UniProt Q9WUL5 20-219, limits assumed); assay: ForteBio, IgG, avid
T4 construct: also called murine PD-L2; not shown: Fc
T4 sequence (looked up): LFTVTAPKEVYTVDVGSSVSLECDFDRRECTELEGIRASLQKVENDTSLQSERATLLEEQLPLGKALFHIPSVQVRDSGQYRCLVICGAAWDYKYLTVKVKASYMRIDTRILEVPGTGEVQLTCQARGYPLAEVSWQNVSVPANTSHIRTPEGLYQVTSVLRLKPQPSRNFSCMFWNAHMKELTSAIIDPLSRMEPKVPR

Cyno PD-L1-Fc [5] = target: T1, Cyno PD-L1-Fc; assay: ForteBio Octet, IgG, avid
Cyno PD-L2-Fc [6] = target: T2, Cyno PD-L2-Fc; assay: ForteBio Octet, IgG, avid
Mouse PD-L1-Fc [7] = target: T3, Mouse PD-L1-Fc; assay: ForteBio Octet, IgG, avid
Mouse PD-L2-Fc [8] = target: T4, Mouse PD-L2-Fc; assay: ForteBio Octet, IgG, avid
Human PD-L1-HIS [9] = target: T5, Human PD-L1-HIS (human, UniProt Q9NZQ7 19-238); assay: ForteBio, IgG, monovalent
T5 construct: also called HIS-tagged monovalent PD-L1; His-tagged human PD-L1; not shown: His tag
T5 sequence (Q9NZQ7 19-238 limits assumed): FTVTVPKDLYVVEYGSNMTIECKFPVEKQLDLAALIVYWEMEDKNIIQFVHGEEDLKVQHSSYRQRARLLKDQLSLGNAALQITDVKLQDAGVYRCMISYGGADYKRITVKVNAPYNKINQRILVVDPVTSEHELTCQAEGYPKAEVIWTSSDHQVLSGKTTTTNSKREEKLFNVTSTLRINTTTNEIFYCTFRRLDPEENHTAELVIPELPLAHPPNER

Human PD-L2-HIS [10] = target: T6, Human PD-L2-HIS (human, UniProt Q9BQ51 20-220); assay: ForteBio, IgG, monovalent
T6 construct: also called His-tagged human PD-L2; not shown: His tag
T6 sequence: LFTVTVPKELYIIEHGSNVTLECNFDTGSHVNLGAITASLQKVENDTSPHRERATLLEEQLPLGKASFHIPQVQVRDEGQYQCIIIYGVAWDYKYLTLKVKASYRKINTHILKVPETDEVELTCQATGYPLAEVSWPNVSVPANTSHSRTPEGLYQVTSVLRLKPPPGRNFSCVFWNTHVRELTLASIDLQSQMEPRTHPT

human PD-L1 on CHO cells [11] = target: T7, human PD-L1 on CHO cells (human, UniProt Q9NZQ7 19-290); assay: cell-based or functional assay
T7 sequence (Q9NZQ7 19-290 limits assumed): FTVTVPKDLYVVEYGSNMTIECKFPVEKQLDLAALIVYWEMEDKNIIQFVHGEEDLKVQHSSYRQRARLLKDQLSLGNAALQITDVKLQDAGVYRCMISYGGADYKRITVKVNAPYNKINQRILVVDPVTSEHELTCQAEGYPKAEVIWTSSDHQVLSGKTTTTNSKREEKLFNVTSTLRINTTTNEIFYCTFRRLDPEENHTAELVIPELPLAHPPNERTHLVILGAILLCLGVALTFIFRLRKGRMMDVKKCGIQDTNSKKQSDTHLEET

human PD-L2 on CHO cells [12] = target: T8, human PD-L2 on CHO cells (human, UniProt Q9BQ51 20-273); assay: cell-based or functional assay
T8 sequence: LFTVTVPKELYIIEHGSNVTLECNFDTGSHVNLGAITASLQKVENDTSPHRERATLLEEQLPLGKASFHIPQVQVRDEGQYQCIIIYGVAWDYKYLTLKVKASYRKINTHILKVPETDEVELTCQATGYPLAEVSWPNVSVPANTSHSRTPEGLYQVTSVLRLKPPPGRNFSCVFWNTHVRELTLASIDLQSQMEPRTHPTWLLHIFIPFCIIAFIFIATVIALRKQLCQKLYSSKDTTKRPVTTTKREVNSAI

Human PD-L2-HIS [13] = target: T6, Human PD-L2-HIS; assay: ForteBio Octet, IgG, monovalent
Human PD-L1-HIS [14] = target: T5, Human PD-L1-HIS; assay: ForteBio Octet, IgG; column head says Avid; IgG against Human PD-L1-HIS (head says Avid), not Fab against PD-L1-Fc
Cyno PD-L1-Fc [15] = target: T1, Cyno PD-L1-Fc; assay: ForteBio, IgG, avid; remark: listed apart in the source
Cyno PD-L2-Fc [16] = target: T2, Cyno PD-L2-Fc; assay: ForteBio, IgG, avid; remark: listed apart in the source
Mouse PD-L1-Fc [17] = target: T3, Mouse PD-L1-Fc; assay: ForteBio, IgG, avid; remark: listed apart in the source
Mouse PD-L2-Fc [18] = target: T4, Mouse PD-L2-Fc; assay: ForteBio, IgG, avid; remark: listed apart in the source
Human PD-L1-HIS [19] = target: T5, Human PD-L1-HIS; assay: ForteBio, IgG, monovalent; remark: listed apart in the source
Human PD-L2-HIS [20] = target: T6, Human PD-L2-HIS; assay: ForteBio, IgG, monovalent; remark: listed apart in the source
human PD-L1 on CHO cells [21] = target: T7, human PD-L1 on CHO cells; assay: cell-based or functional assay; remark: listed apart in the source
human PD-L2 on CHO cells [22] = target: T8, human PD-L2 on CHO cells; assay: cell-based or functional assay; remark: listed apart in the source

T1 sequence (G7PSE7 entry or part of it limits assumed): as the sequence (Q9NZQ7 19-238 limits assumed) above, with A33T, A34S, S62N, R68Q, Q82R, F173L, T185A, T192I, H215L counted along it

B1: BiPDL4-14 (antibody, V domains shown)
VH: QVQLVESGGGVVQPGRSLRLSCAASGFTFDEYGMHWVRQAPGKGLEWVAVIGYDGLNKYYADSVKGRFTISRDNSKNTLYLQMNSLRAEDTAVYYCARAGIEYSYAYTDYWGQGTLVTVSS
VL: EIVLTQSPGTLSLSPGERATLSCRASQFVYSSDLAWYQQKPGQAPRLLIYGASTRKTGIPDRFSGSGSGTDFTLTISRLEPEDFAVYYCLQFGWWPPRTFGGGTKVEIK
notes: Fourth generation, IgG
- Kd (Cyno PD-L1-Fc [1]): 508 pM
- Kd (Cyno PD-L2-Fc [2]): 640 pM
- Kd (Mouse PD-L1-Fc [3]): 400 pM
- Kd (Mouse PD-L2-Fc [4]): 7880 pM
- Kd (Cyno PD-L1-Fc [5]): 508 pM
- Kd (Cyno PD-L2-Fc [6]): 640 pM
- Kd (Mouse PD-L1-Fc [7]): 400 pM
- Kd (Mouse PD-L2-Fc [8]): 7880 pM
- Kd (Human PD-L1-HIS [9]): 2260 pM
- Kd (Human PD-L2-HIS [10]): 738 pM
- EC50 (read off the curve); Fold induction of luciferase, Promega: CHO-PD-L1/PD-L2 dual cells with PD-1 Jurkat reporter cells (PD-L1 and PD-L2 not separable) (human PD-L1 on CHO cells [11]): ~300 pM
- EC50 (read off the curve); Fold induction of luciferase, Promega: CHO-PD-L1/PD-L2 dual cells with PD-1 Jurkat reporter cells (PD-L1 and PD-L2 not separable) (human PD-L2 on CHO cells [12]): ~300 pM
- Kd (Human PD-L2-HIS [13]): 738 pM
- Kd (Human PD-L1-HIS [14]): 692 pM

B2: BiPDL3-14 (antibody, V domains shown)
VH: QVQLQQWGAGLLKPSETLSLTCAVYGGSLSGYPWSWIRQPPGKGLEWIGETDVSGWTDYNPSLKSRVTISVDTSKNQFSLKLSSVTAADTAVYYCARDGRRMGTPSFDIWGQGTMVTVSS
VL: DIQMTQSPSSVSASVGDRVTITCRASQGINSFLAWYQQKPGKAPKLLIYAASSLNSGVPSRFSGSGSGTDFTLTISSLQPEDFATYYCQKAVYFPPTFGGGTKVEIK
notes: IgG; also called ADI-37464; 37464
- Kd (Cyno PD-L1-Fc [15]): 371 pM
- Kd (Cyno PD-L2-Fc [16]): 543 pM
- Kd (Mouse PD-L1-Fc [17]): 2340 pM
- Kd (Mouse PD-L2-Fc [18]): 533 pM
- Kd (Human PD-L1-HIS [19]): 3930 pM
- Kd (Human PD-L2-HIS [20]): 684 pM
- EC50 (read off the curve); Luc Activity, Promega CHO-PDL1/PD-L2 dual cells with NFAT-Luc Jurkat T cells (PD-L1 and PD-L2 not separable) (human PD-L1 on CHO cells [21]): ~2000 pM
- EC50 (read off the curve); Luc Activity, Promega CHO-PDL1/PD-L2 dual cells with NFAT-Luc Jurkat T cells (PD-L1 and PD-L2 not separable) (human PD-L2 on CHO cells [22]): ~2000 pM
